Here are results for one variant from IntAct's records for PubMed 12878161.

First the molecules themselves.
B1: Tripartite motif-containing protein 5 (Homo sapiens), Q9C035-4 (parent)
chain: MASGILVNVKEEVTCPICLELLTQPLSLDCGHSFCQACLTANHKKSMLDKGESSCPVCRISYQPENIRPNRHVANIVEKLREVKLSPEGQKVDHCARHGEKLLLFCQEDGKVICWLCERSQEHRGHHTFLTEEVAREYQVKLQAALEMLRQKQQEAEELEADIREEKASWKTQIQYDKTNVLADFEQLRDILDWEESNELQNLEKEEEDILKSLTNSETEMVQQTQSLRELISDLEHRLQGSVMELLQGVDGVIKRTENVTLKKPETFPKNQRRVFRAPDLKGMLEVFRELTDVRRYWGWSAMARSRFTATSTSQIQAILLPQPPK
partner: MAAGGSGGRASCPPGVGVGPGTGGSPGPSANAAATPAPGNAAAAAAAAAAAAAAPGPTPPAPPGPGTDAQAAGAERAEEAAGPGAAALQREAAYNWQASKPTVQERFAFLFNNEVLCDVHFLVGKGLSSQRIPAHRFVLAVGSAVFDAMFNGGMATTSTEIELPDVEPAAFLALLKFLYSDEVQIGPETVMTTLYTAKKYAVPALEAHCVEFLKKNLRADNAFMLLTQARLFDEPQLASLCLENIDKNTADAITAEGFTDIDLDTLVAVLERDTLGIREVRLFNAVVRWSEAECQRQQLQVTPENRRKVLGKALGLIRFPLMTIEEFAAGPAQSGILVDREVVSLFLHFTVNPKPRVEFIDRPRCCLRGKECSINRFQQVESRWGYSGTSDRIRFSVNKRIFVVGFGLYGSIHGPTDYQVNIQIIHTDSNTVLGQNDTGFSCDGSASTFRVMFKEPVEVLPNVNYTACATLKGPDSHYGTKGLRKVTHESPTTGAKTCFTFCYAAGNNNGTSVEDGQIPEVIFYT

Variants of B1 are the subject of the assay. The following applies: with btbd2_human BTBD2, Q9BX70.
As to C15A;C18A, the “effect of a mutation on the interaction” value is recorded as “decreasing interaction”.
